Data on 41 sequences can be found in the nanobody polyreactivity screen of Harvey et al. (2022).

This series is described as follows: yeast display, Sf9 membrane polyspecificity reagent, FACS + sequencing; frameworks hold sequencing errors. In outline: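 Galactose induction of a Saccharomyces cerevisiae BJ5465 synthetic nanobody display library ran 36–48 hours. The cells were then stained for 1 hour at 4 °C with 10% biotinylated, detergent-solubilized Sf9 membrane reagent, pulled down on streptavidin microbeads and FACS-sorted into low and high (top ~1%) gates on expression and reagent-binding fluorescence. Labels for polyreactivity follow the gate of origin.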
Turning to “QVQLVESGGGLVQAGGSLRLSCAASGIIFVDNDMGWYRQAPGKERELVADISDSGGSTNYADSVKGRFTISRDNAKNTVYLQMNSLKPEDTAVYYCAADSADPTEYDYWGQGTQVSVSS”, the “polyreactivity (PSR sort gate)” value is “low polyreactivity”.

Take “QVQLVESGGGLVQAGGSLRLSCAASGIIFVDNVMGWYIQAPGKERELVAAIDYSGGSTYYADSVKGRFTISRDNAKNSVYLQMNSLKPEDTAVYYCAATDPRRRVRYGYWGQGTQVTVSS”: the “polyreactivity (PSR sort gate)” value is reported as “low polyreactivity”.

For “QVQLVESGGGLVQAGGSLRLSCAASGIIFVFYVMGWYRQAPGKERELVAAISGGGSTYYADSVKGRFTISRDNAKNTVYLQMNSLKPEDTAVYYCNADYDGGYYGDLSLYDYWGQGTQVTVSS”, the “polyreactivity (PSR sort gate)” value is reported as “low polyreactivity”.

“QVQLVESGGGLVQAGGSLRLSCAASGIIFVGYAMGWYRQAPGKERELVAGINCGGSTNYADSVKGRFTISRDNAKNTVYFQMNSLKPEDTAVYYCAAYPFDYYGYDYWGLGTQVTVSS”: the “polyreactivity (PSR sort gate)” value is reported as “low polyreactivity”.

Regarding “QVQLVESGGGLVQAGGSLRLSCAASGIIFVHYALGWYRQAPGKEWQLVAAITSGGSTKYADSVKGRFTISRDNAKNTVYLQMNSLKPEDTAVYYCAAGHYVYWYRYQLGGYNYWGIGTQVTVSS”, the “polyreactivity (PSR sort gate)” value is given as “high polyreactivity”.

Consider “QVQLVESGGGLVQAGGSLRLSCAASGIIFVIYAMVWYRQAPGKERELVAAISSSGGSTYYADSVKGRFTISRDNAKNTVYLLMNSLKPEDTAVYYCAVALSHYFGGYGYWGQGTQLTVSS”, for which the “polyreactivity (PSR sort gate)” value was “low polyreactivity”.

Consider “QVQLVESGGGLVQAGGSLRLSCAASGIIFVKNAMGWYRQAPGKERELVASISGSGGRTYYADSVKGRFTISRDNAKNTVYLQMKSLKPEDTAVYYCNTLLAPHARKARRHDYWGQGTQVTVSS”, for which the “polyreactivity (PSR sort gate)” value is “low polyreactivity”.

For the sequence “QVQLVESGGGLVQAGGSLRLSCAASGIIFVPNAMGWSRHPPGKERELVAAITGRGVSTYYADSVKGRFTISRDTAKKTVYLQMNSLKPEDTAVYYCAATLFSYSGGTHDYWGQGTQVTVSS”, the “polyreactivity (PSR sort gate)” value is on record as “high polyreactivity”.

Turning to “QVQLVESGGGLVQAGGSLRLSCAASGIIFVRYAMGWYRQAPGKERELVAAISWSGGSTYYADSVKGRFTISRDNAKNTVYLQMNSLKPEDTAVYYCAADSHRTRGDARYYYWGQGTQVTVSS”, the “polyreactivity (PSR sort gate)” value is “high polyreactivity”.

Turning to “QVQLVESGGGLVQAGGSLRLSCAASGIIFVWYAMGWYRQAPGKERELVAAIRSGGITNYADSVKGRFTISRDNAKNTVYLQMNSLKPEDTAVYYCDAPYRTDTGDDYWGQGTQVTVSS”, the “polyreactivity (PSR sort gate)” value was “low polyreactivity”.

Turning to “QVQLVESGGGLVQAGGSLRLSCAASGIIFVYYAMGWYRQAPGKERELVAAISYSGGRTYYADSVKGRFTISRDNAKNTVYLQMNSLKPEDTAVYYCAAVDRRGYRYALDYWGQGTQVTVSS”, the “polyreactivity (PSR sort gate)” value is recorded as “high polyreactivity”.

As for “QVQLVESGGGLVQAGGSLRLSCAASGIIFVYYTMGWYRQAPGKERELVAAITSGGSTYYADSVKGRFTISRDNAKNTVYVQMNSLKPEDTAVYYCAAVGRPPYAGDRGYWGQGTQVTVSS”, the “polyreactivity (PSR sort gate)” value was “high polyreactivity”.

For “QVQLVESGGGLVQAGGSLRLSCAASGIIFWFYAMGWYRQAPGKERELVAAISGDGDSTYYADSVKGRFTISRDNAKNTVYLQMNSLKPEDTAVYYCAAEWDPVFATDEDDYWGQGTQVTVSS”, the “polyreactivity (PSR sort gate)” value is on record as “low polyreactivity”.

“QVQLVESGGGLVQAGGSLRLSCAASGIIFWGYAMGWYRQAPGKERELVAAISRGGSTYYADSVKGRFTISRDNAKNTVYLQMNSLKPEDTAVYYCAATGVRTWALDYWGQGTQVTVSS”: the “polyreactivity (PSR sort gate)” value is listed as “high polyreactivity”.

Regarding “QVQLVESGGGLVQAGGSLRLSCAASGIIFWRYAMGWYRQAPGKERELVASISWSGGSTSYADSVKGRFTISRDNAKNTVYLQMNSLKPEDTAVYYCAAVFYYRRRYYYWGQGTQVTVSS”, the “polyreactivity (PSR sort gate)” value is “high polyreactivity”.

For the sequence “QVQLVESGGGLVQAGGSLRLSCAASGIIFWRYAMGWYRQAPGKERELVATITSGGSTDYADSVKGRFTISRDNAKNTVYLQMNSLKPEDTEVYYCAALGYATGYWRYYYWGQGTQVTVSS”, the “polyreactivity (PSR sort gate)” value is recorded as “low polyreactivity”.

For the sequence “QVQLVESGGGLVQAGGSLRLSCAASGIIFWTYTMGWYRQAPGKERELVAAISSGGSTKYADSVKGRFTISRDNAKNTVYLQMNSLKPEDTAVYYCAAYSAWYGYDYWGQGTQVTVSS”, the “polyreactivity (PSR sort gate)” value was “low polyreactivity”.

“QVQLVESGGGLVQAGGSLRLSCAASGIIFWTYTMGWYRQAPGKERELVAAISSGGSTNYADSVKGRFTISRDNAKNTVYLQMNSLKPEDTAVYYCAKRRQYQRSYNYWGQGTQVTVSS”: the “polyreactivity (PSR sort gate)” value was “low polyreactivity”.

Consider “QVQLVESGGGLVQAGGSLRLSCAASGIIFWTYTMGWYRQAPGKERELVAAISSGGSTTYADSVKGRFTISRDNSMNTVFLQMNWLKPEDTAVYYCAKRRQYQRSYNYWGKGTQVTVSS”, for which the “polyreactivity (PSR sort gate)” value is given as “low polyreactivity”.

As for “QVQLVESGGGLVQAGGSLRLSCAASGIIFWVNAMGWYRQAPGKERELVAAIRSDGSTKYADSVKGRFTISRDNAKNTVYLQMNSLKPEDTALYYCAKRDYSYPWFRDYYYWGQGTQVTVSS”, the “polyreactivity (PSR sort gate)” value is “low polyreactivity”.

Take “QVQLVESGGGLVQAGGSLRLSCAASGIIFWYNAMGWYRQAPGKERELVAAISWSGGRTYYADSVKGRFTISRDNAKNTVYLQMNSLKPEDTAVYYCAAKVPRSSRSYGYWGQGTQVTVSS”: the “polyreactivity (PSR sort gate)” value is “high polyreactivity”.

Consider “QVQLVESGGGLVQAGGSLRLSCAASGIIFWYNAMGWYRQAPWKERELVASISTGGRTYYADSVKGRFTISRDNAKNTVYLQMNSLKPEDTAVYYCAAASRVGFLYYYWGQGTQVTVSS”, for which the “polyreactivity (PSR sort gate)” value is “low polyreactivity”.

As to “QVQLVESGGGLVQAGGSLRLSCAASGIIFWYYAMGWYRQAPGKERELVAAISQSGGRTYYADSVKGRFTISRDNAKNTVYLQMNSLKPEDTAVYYCAAEPYTGYGYWGQGTQVTVSS”, the “polyreactivity (PSR sort gate)” value is listed as “high polyreactivity”.

“QVQLVESGGGLVQAGGSLRLSCAASGIIFWYYAMGWYRQAPGKERELVASISGTGGTTYYADSVKGRFTISRDNAKNTVYLQMNSLKPEDTAVYYCAALSGQHDYDYWGQVTQVTVSS”: the “polyreactivity (PSR sort gate)” value is on record as “low polyreactivity”.

Regarding “QVQLVESGGGLVQAGGSLRLSCAASGIIFYDNAMGWYRQAPGKERELVAAISWGGGDTYYADSVKGRFTISRDNAKNTVYLQMNSLKPEDTAVYYCAAGNLPDYDYWGQGTQVTVSS”, the “polyreactivity (PSR sort gate)” value is on record as “low polyreactivity”.

Consider “QVQLVESGGGLVQAGGSLRLSCAASGIIFYDYAMGWYREAPGKERVLVGAISRSGGSTYYADSVKGRFTISRDNAKYTVYLQMNCLKPEDTAVYYCNAKYPFRKKYYYWGQGTQVTVAS”, for which the “polyreactivity (PSR sort gate)” value was “high polyreactivity”.

Take “QVQLVESGGGLVQAGGSLRLSCAASGIIFYDYAMGWYRQAPGKERELVAAISGSGVGTYYADSVKGRFTISRDNAKNTVYLQMNSLKPEDTAVYYCATRYQWGGPYYRYDYWGQGTQVTVSS”: the “polyreactivity (PSR sort gate)” value was “high polyreactivity”.

In the case of “QVQLVESGGGLVQAGGSLRLSCAASGIIFYDYAMGWYRQAPGKERELVAAITSNGDNTYYADSVKGRFTISRDNAKNTVYLQMNSLKPEDTAVYYCAVDGSFAADFDNYLEEYGYWGQGTLVTVSS”, the “polyreactivity (PSR sort gate)” value is “low polyreactivity”.

On to “QVQLVESGGGLVQAGGSLRLSCAASGIIFYDYAMGWYRQAPGKERELVAAITSNGDNTYYADSVKGRFTISRDNAKNTVYLQMNSLKPEDTAVYYCAVDGSFAADFDNYLEEYGYWGQGTQVSVSS”, for which the “polyreactivity (PSR sort gate)” value is listed as “low polyreactivity”.

“QVQLVESGGGLVQAGGSLRLSCAASGIIFYDYAMGWYRQAPGKERELVASISWSSGSTYYADSVKGRFTISRDNAKNTVYLQMNSLKPEDTAVYYCAADGYPLQLYNYWGQGTQVTVSS”: the “polyreactivity (PSR sort gate)” value is given as “low polyreactivity”.

As to “QVQLVESGGGLVQAGGSLRLSCAASGIIFYEYVMGWYRQAPGKERELVATISSIGGSTYYADSVKGRFTISRDNAKNTVYLQMNSLKPEDTAVYYCAADPDPVVSRGGNWYGDDYWGQGTQVTVSS”, the “polyreactivity (PSR sort gate)” value is “high polyreactivity”.

As to “QVQLVESGGGLVQAGGSLRLSCAASGIIFYGNVMGWYRQAPGKERELVAAITSTGSTSYADSVKGRFTMSRDNGKNTVYLQMNSLKPEDTAVYYCAADNAVWEYDYWGQGTQVTVSS”, the “polyreactivity (PSR sort gate)” value was “low polyreactivity”.

Regarding “QVQLVESGGGLVQAGGSLRLSCAASGIIFYGYAMGWYRQAPGKERELVAGISSGGSTYYADSVKGRFTISRDNAKNTVYLQMNSLKPVDTAVSYCNADGGYSYESTDHYGYDYWGQGTQVTVSS”, the “polyreactivity (PSR sort gate)” value was “low polyreactivity”.

For the sequence “QVQLVESGGGLVQAGGSLRLSCAASGIIFYGYVMGWYRQAPGKERELVATSTSSGGSTYYADSVKGRFTISRDNAKNTGYLQMNSLKPEDTAVYYCAADYDYGAWVRHDYWGQGTQVTVSS”, the “polyreactivity (PSR sort gate)” value is recorded as “low polyreactivity”.

Regarding “QVQLVESGGGLVQAGGSLRLSCAASGIIFYKNAMGWYRQAPGKDRELVAAISGSGGRTYYADSVTGRFTISRDNGKNTVYFQMNSLKPEDTAVYYCAARQPYRHGYESWGQGSQVTVSS”, the “polyreactivity (PSR sort gate)” value is “high polyreactivity”.

Turning to “QVQLVESGGGLVQAGGSLRLSCAASGIIFYLYAMGWYRQAPGKERELVAAISRRGGSTYYADSVKGRFTISRDKAKNTVYLQMNSLKPEDTAVYYCAATIGTFGYGYWGQGTQVTVSS”, the “polyreactivity (PSR sort gate)” value is on record as “high polyreactivity”.

Turning to “QVQLVESGGGLVQAGGSLRLSCAASGIIFYPNAMGWYRQAPGKERELVAAITSDGSTYYADSVKGRFTISRDNAMNTVYLQMNSLKPDDTAVYYCAAWDDYGYDYWGQGTQVTVSS”, the “polyreactivity (PSR sort gate)” value is listed as “low polyreactivity”.

Regarding “QVQLVESGGGLVQAGGSLRLSCAASGIIFYRNAMGWYRQAPGKERELVAAISSSGGRTYYADSVKGRFTISRDNAKNTVYLQMNSLKPEDTAVYYCAADYQWFWVWYGYWGQGTQVTVSS”, the “polyreactivity (PSR sort gate)” value is given as “high polyreactivity”.

For “QVQLVESGGGLVQAGGSLRLSCAASGIIFYRNTMGWYRQAPGKERELVASISRGGSTYYADSVKGRFTISRDNAKNTVYLPMNTLKPEDTAVYYCSTSGPQDYSRNFDYWGQGTQVTVSS”, the “polyreactivity (PSR sort gate)” value is reported as “low polyreactivity”.

Regarding “QVQLVESGGGLVQAGGSLRLSCAASGIIFYRYAMGWYRQAPGKERELVAAISSSGTNTYYADSVKGRFTISRDNAKNTVYLQMNSLKPEDTAVYYCNSDTWADRSTYDYWGQGTQVTVSS”, the “polyreactivity (PSR sort gate)” value was “low polyreactivity”.

Consider “QVQLVESGGGLVQAGGSLRLSCAASGIIFYRYAMGWYRQAPGKERELVARITSSTGSTYYADSVKGRFTISRDNAKNTVYLQMNSLKPEDTAVYYCNARRQRNKSYNYWGQGTQVTVSS”, for which the “polyreactivity (PSR sort gate)” value was “high polyreactivity”.
